How the values were obtained:
[1] = target: HPV59 L1 C175S mutant after limited trypsin digestion (crystallized pentamer) (human papillomavirus type 59); assay: crystal structure
[2] = target: HPV59 L1 C175S mutant after limited trypsin digestion (crystallized pentamer) (human papillomavirus type 59); assay: AUC

## HPV59 L1 C175S mutant after limited trypsin digestion (crystallized pentamer) (domain or fragment)
[1]
  stoichiometry N: 5
[2]
  stoichiometry N: 5

Reference: PMC5595370
